Sequences and labels used below:
B1: PNUTS(1-148), PNUTS amino-terminal domain (PAD) (domain or fragment)
chain: MGSGPIDPKELLKGLDSFLNRDGEVKSVDGISKIFSLMKEARKMVSRCTYLNILLQTRSPEILVKFIDVGGYKLLNNWLTYSKTTNNIPLLQQILLTLQHLPLTVDHLKQNNTAKLVKQLSKSSEDEELRKLASVLVSDWMAVIRSQS

Targets include MYC(1-88 V19A); MYC(1-88 Q20A); MYC(1-88)-V19A; MYC(1-88)-Q20A.
Assay in all cases: BLI
A general note: Biolayer interferometry detects binding as a change in optical thickness at a sensor tip.

For assay [1], the target named is B1.

As for B1, the Kd was 8.4 µM with MYC(1-88 V19A), 5.3 µM in the assay with MYC(1-88 Q20A), 8.4 µM in the assay with MYC(1-88)-V19A and 5.3 µM with MYC(1-88)-Q20A.

B2: biotinylated MYC(1-88 F23A) (domain or fragment)
chain: MPLNVSFTNRNYDLDYDSVQPYAYCDEEENFYQQQQQSELQPPAPSEDIWKKFELLPTPPLSPSRRSGLCSPSYVAVTPFSLRGDNDG
modifications: biotin on the C-terminal AVI tag
B2 had a Kd in assay [1] of 19 µM.

B3: biotinylated MYC(1-88 Y22A) (domain or fragment)
chain: MPLNVSFTNRNYDLDYDSVQPAFYCDEEENFYQQQQQSELQPPAPSEDIWKKFELLPTPPLSPSRRSGLCSPSYVAVTPFSLRGDNDG
modifications: biotin on the C-terminal AVI tag
Turning to B3, binding in assay [1] was put at a Kd of 24 µM. The Kd values of the last two molecules are within 1.5-fold of each other.

B4: biotinylated MYC(1-88 Y24A) (domain or fragment)
chain: MPLNVSFTNRNYDLDYDSVQPYFACDEEENFYQQQQQSELQPPAPSEDIWKKFELLPTPPLSPSRRSGLCSPSYVAVTPFSLRGDNDG
modifications: biotin on the C-terminal AVI tag
In the case of B4, in assay [1], the Kd was 37 µM.

B5: biotinylated MYC(1-88 P21A) (domain or fragment)
chain: MPLNVSFTNRNYDLDYDSVQAYFYCDEEENFYQQQQQSELQPPAPSEDIWKKFELLPTPPLSPSRRSGLCSPSYVAVTPFSLRGDNDG
modifications: biotin on the C-terminal AVI tag
In assay [1], B5 returned a Kd of 19 µM.

One may read the Kd as the equilibrium constant for the complex coming apart. Low readings indicate higher affinity, high ones lower affinity.

These data come from paper doi:10.1101/2021.12.02.470928 (2021).
